From patent US20170101472A1 (Regeneron, published 2017)

B1: H4sH15482P (antibody, human IgG4 S228P, kappa)
heavy: QVQLVESGGGVVQPGRSLRLSCVASGFTFSSYGMHWVRQAPGKGLEWVAIIWYDGSNKYYADSVKGRFTISRDNSKNTQYLQMNSLRAEDTAVYYCASVATSGDFDYYGMDVWGQGTTVTVSSASTKGPSVFPLAPCSRSTSESTAALGCLVKDYFPEPVTVSWNSGALTSGVHTFPAVLQSSGLYSLSSVVTVPSSSLGTKTYTCNVDHKPSNTKVDKRVESKYGPPCPPCPAPPVAGPSVFLFPPKPKDTLMISRTPEVTCVVVDVSQEDPEVQFNWYVDGVEVHNAKTKPREEQFNSTYRVVSVLTVLHQDWLNGKEYKCKVSNKGLPSSIEKTISKAKGQPREPQVYTLPPSQEEMTKNQVSLTCLVKGFYPSDIAVEWESNGQPENNYKTTPPVLDSDGSFFLYSRLTVDKSRWQEGNVFSCSVMHEALHNHYTQKSLSLSLGK
light: EIVLTQSPATLSLSPGERTTLSCRASQRISTYLAWYQQKPGQAPRLLIYDASKRATGIPARFSGSGSGTGFTLTISSLEPEDFAVYYCQQRSNWPLTFGGGTKVEIKRTVAAPSVFIFPPSDEQLKSGTASVVCLLNNFYPREAKVQWKVDNALQSGNSQESVTEQDSKDSTYSLSSTLTLSKADYEKHKVYACEVTHQGLSSPVTKSFNRGEC
notes: H4sH = modified human IgG4 Fc; also called mAb1
B2: H4H15482P (antibody, human IgG4 S228P, kappa)
heavy: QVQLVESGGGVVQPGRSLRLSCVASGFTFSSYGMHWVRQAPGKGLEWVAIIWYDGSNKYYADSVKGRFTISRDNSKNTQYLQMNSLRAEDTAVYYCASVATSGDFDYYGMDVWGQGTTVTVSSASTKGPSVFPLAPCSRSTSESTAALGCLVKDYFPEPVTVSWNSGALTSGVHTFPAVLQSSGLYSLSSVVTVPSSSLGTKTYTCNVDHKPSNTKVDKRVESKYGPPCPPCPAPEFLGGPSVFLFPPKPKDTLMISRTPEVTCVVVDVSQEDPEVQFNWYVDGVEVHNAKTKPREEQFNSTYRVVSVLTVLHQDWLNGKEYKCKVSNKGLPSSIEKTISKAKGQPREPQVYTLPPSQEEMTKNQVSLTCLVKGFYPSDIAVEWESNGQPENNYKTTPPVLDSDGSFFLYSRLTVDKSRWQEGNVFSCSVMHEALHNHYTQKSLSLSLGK
light: EIVLTQSPATLSLSPGERTTLSCRASQRISTYLAWYQQKPGQAPRLLIYDASKRATGIPARFSGSGSGTGFTLTISSLEPEDFAVYYCQQRSNWPLTFGGGTKVEIKRTVAAPSVFIFPPSDEQLKSGTASVVCLLNNFYPREAKVQWKVDNALQSGNSQESVTEQDSKDSTYSLSSTLTLSKADYEKHKVYACEVTHQGLSSPVTKSFNRGEC
notes: H4H = human IgG4 Fc with S108P
B3: H4H15479P (antibody, human IgG4, V domains shown)
VH: QVQLQQWGAGLLNPSETLSLTCAVYGGAFSDYYWNWIRQPPGKGLEWIGEINHRGSTNYNPSLKSRVTISVDTSKNQFSLRMSSVTAADAAVYYCARGEDYDIWNGYYQEKWGQGTLVTVSS
VL: EIVLTQSPATLSLSPGERATLSCRASQSISTYLAWYQQKPGQAPRLLIYDASKRATGIPARFSGSGSGTDFTLTISSLEPEDFVVYYCHQRSNWPLTFGGGTKVEIK
B4: H4H14813N (antibody, human IgG4, V domains shown)
VH: QVQLQQWGAGLLKPSETLSLTCAVYGGSFSGYYWNWIRQPPGKGLEWVGEISHRGSTNYNPSLKSRVTISLDTSKNQFSLKLTSVTAADTAVYYCSRDEELEFRFFDYWGQGTLVTVSS
VL: EIVLTQSPATLSLSPGERATLSCRASQSVSSYLAWYQQKPGQAPRLLVYGASNRATGIPARFSGSGSGTDFTLTISSLEPEDFAFYYCQQRSNWPLTFGGGTKVEIK
notes: H4H = human IgG4 Fc with S108P hinge mutation
B5: H4sH15498P2 (antibody, V domains shown)
VH: EVQLVESGGGLVQPGGSLRLSCAASGFTFTSYAMTWVRQAPGKGLEWVSDISGSGGRTYYADSVKGRFTISRDNSKNMLYLQMNILRAEDTAVYHCAKGTGQQVDLYNYYYALDVWGQGTTVTVSS
VL: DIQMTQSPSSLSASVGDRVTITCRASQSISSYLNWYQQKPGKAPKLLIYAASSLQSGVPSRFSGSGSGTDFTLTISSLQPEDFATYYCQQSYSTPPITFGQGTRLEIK
notes: H4sH = human IgG4 Fc with 2 or more amino acid changes as disclosed in US20140243504
B6: H4H15498P2 (antibody, human IgG4, V domains shown)
VH: EVQLVESGGGLVQPGGSLRLSCAASGFTFTSYAMTWVRQAPGKGLEWVSDISGSGGRTYYADSVKGRFTISRDNSKNMLYLQMNILRAEDTAVYHCAKGTGQQVDLYNYYYALDVWGQGTTVTVSS
VL: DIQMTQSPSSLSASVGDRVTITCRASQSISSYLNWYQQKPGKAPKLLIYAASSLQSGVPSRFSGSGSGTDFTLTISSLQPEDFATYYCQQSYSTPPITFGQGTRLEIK
notes: as for B4
B7: H4sH14813N (antibody, human IgG4 S228P, kappa, V domains shown)
VH: QVQLQQWGAGLLKPSETLSLTCAVYGGSFSGYYWNWIRQPPGKGLEWVGEISHRGSTNYNPSLKSRVTISLDTSKNQFSLKLTSVTAADTAVYYCSRDEELEFRFFDYWGQGTLVTVSS
VL: EIVLTQSPATLSLSPGERATLSCRASQSVSSYLAWYQQKPGQAPRLLVYGASNRATGIPARFSGSGSGTDFTLTISSLEPEDFAFYYCQQRSNWPLTFGGGTKVEIKR
notes: H4sH = modified human IgG4 Fc

Legend:
[1] = biological target: T1, human LAG3 expressed on HEK293 cells (human, UniProt P18627 23-525); test: flow cytometry, HEK293/hLAG3 cells
T1 construct: also called hLAG3; HEK293/hLAG3
T1 sequence: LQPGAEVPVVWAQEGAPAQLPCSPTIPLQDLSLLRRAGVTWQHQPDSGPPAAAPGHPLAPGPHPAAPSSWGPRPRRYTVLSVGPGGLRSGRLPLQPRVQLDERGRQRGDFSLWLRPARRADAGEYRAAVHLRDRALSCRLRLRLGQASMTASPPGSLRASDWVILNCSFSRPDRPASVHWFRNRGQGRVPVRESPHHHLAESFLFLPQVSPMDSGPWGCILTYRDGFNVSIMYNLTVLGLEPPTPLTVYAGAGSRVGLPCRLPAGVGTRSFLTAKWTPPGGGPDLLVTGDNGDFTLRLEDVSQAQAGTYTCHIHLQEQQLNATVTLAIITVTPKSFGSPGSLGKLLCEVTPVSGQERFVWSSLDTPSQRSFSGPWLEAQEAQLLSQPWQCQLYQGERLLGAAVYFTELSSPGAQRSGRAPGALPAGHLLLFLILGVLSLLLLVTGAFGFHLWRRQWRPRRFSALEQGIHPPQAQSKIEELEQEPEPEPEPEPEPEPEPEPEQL
Procedure: The serially diluted antibodies were added to the cell suspension and incubated for 15-30 minutes on ice. The cells were centrifuged and pellets were washed with staining buffer to remove unbound antibodies. […] The cells were centrifuged and pellets were washed with staining buffer to remove unbound secondary F(ab′)2 and fixed overnight with a 1:1 dilution of Cytofix (BD Biosciences, #554655) and staining buffer. Following day, fixed cells were centrifuged and pellets were washed with staining buffer, resuspended and filtered. Fluorescence measurements were acquired on HyperCyt® cytometer and analyzed in ForeCyt™ (IntelliCyt; Albuquerque, N. Mex.) to determine the mean fluorescence intensities (MFI). The EC₅₀ values were calculated from a four-parameter logistic equation over an 11-point response curve using GraphPad Prism. EC₅₀ was defined as the concentration of antibody at which 50% of maximal binding signal is detected. The MFI ratio for each antibody was calculated by dividing the MFI at 100 nM by MFI at 0 nM of antibody concentration.

[2] = biological target: T1, human LAG3 expressed on HEK293 cells; test: cell adherence assay, blocks A20 (mouse MHCII) cells on HEK293-hLAG3
Procedure: Cells were plated into sterile Nunclon™ Delta 96-Well MicroWell™ Black Optical Bottom Plates (Thermo Scientific). The wells from the perimeter of the plate were not included in the assay design to avoid edge effects.
On the day of treatment, all antibodies were serially (1:3) diluted in RPMI media (without FBS or supplements added). The 9-point dilution ranged between 45 pM to 300 nM, with the last dilution point containing no mAb. […] While the plated HEK293-LAG3 cells were incubating with the test or control antibodies, non-adherent B-cells (RAJI or A20) were labeled with Calcein AM using the following procedure. RAJI and A20 suspension cells were harvested and centrifuged at 1,200 rpm for 5 minutes. Cell pellets were resuspended in 1×PBS and counted. Cells were washed with RPMI, and resuspended in RPMI at a concentration of 10⁶ cells per 1 ml. Cells were labeled by adding 5 μL of Calcein AM per 1 ml of cell suspension and incubated for 30 min at 37° C., at 5% CO₂. […] Subsequently, 10 μL of BD Pharmingen Fc Block (0.5 mg/mL) was added per 1 ml of the Calcein AM labeled cells, which were incubated at RT for 10 minutes. The Calcein AM-stained, Fc-blocked RAJI or A20 cells were resuspended in RPMI to a final concentration of 3×10⁶ cells per 1 ml and subsequently used in the adherence assay.
The labeled suspension cells were incubated with the HEK293 monolayer for 1 hour at 37° C., at 5% CO₂.

[3] = biological target: T2, recombinant human LAG3 expressed with a C-terminal myc-myc-hexahistidine tag (human, UniProt P18627 29-450); test: SPR, mAb captured, 37 C
T2 construct: also called hLAG3-mmh; hLAG3.mmh
Procedure: (§1) The BiaCore sensor surface was derivatized with either a polyclonal rabbit anti-mouse antibody (GE, # BR-1008-38) or with a monoclonal mouse anti-human Fc antibody (GE, # BR-1008-39) to capture approximately 50-85 RUs of anti-LAG3 monoclonal antibodies, expressed with either a mouse Fc or a human Fc, respectively. […] The binding of the LAG3 reagents to captured monoclonal antibodies was monitored for 4 minutes while their dissociation from the antibodies was monitored for 8 minutes in HBST running buffer (0.01 M HEPES pH 7.4, 0.15 M NaCl, 3 mM EDTA, 0.05% v/v Surfactant P20). Experiments were performed at 25° C. and 37° C. Kinetic association (kₐ) and dissociation (kd) rate constants were determined by processing and fitting the data to a 1:1 binding model using Scrubber 2.0c curve fitting software. Binding dissociation equilibrium constants (KD) and dissociative half-lives (t_{1/2}) were then calculated from the kinetic rate constants as: KD (M)=kd/kₐ and t_{1/2} (min)=[ln2/(60*kd)].

[4] = biological target: T3, recombinant human LAG3 expressed with a C-terminal mouse IgG2a mFc tag (human); test: SPR, mAb captured, 37 C
T3 construct: Called dimeric; also called hLAG3-mFc; hLAG3 dimer
T3 chain: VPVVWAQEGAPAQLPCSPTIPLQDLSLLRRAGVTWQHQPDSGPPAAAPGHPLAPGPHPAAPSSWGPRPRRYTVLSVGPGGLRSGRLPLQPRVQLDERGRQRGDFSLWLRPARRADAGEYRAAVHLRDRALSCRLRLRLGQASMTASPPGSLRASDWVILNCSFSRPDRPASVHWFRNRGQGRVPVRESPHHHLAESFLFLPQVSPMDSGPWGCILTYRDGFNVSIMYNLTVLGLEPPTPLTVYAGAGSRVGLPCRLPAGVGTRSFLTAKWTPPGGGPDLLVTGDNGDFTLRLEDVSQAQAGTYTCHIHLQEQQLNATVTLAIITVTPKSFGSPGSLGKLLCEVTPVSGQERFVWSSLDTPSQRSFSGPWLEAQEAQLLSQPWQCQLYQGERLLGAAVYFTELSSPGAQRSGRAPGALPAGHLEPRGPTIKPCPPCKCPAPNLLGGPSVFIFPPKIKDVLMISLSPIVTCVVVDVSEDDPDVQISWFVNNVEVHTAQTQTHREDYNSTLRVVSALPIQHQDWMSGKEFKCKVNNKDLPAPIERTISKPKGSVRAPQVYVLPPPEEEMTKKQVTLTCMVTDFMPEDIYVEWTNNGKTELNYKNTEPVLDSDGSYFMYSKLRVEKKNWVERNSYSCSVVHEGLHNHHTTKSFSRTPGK
Procedure: as §1

Row | Binder | EC50 [1] | IC50 [2] | Kd [3] | t1/2 [3] | Kd [4] | t1/2 [4] | Ratio of MFI (100 nM/0 nM) [1] | koff [3] | kon [3] | koff [4] | kon [4]
1 | B1 | 1.11 nM | 3.8 nM | 1.82 nM | 0.377 h | 0.0316 nM | 1.17 h | – | – | – | – | –
2 | B2 | 1.91 nM | 11 nM | 1.96 nM | 0.337 h | 0.0891 nM | 2.13 h | – | – | – | – | –
3 | B3 | 0.752 nM | 11 nM | 0.0321 nM | 4.72 h | 0.00399 nM | ≥ 19.2 h | 203 | 4.08e-05 s⁻¹ | 1.27e+06 M⁻¹ s⁻¹ | 1e-05 s⁻¹ | 2.5e+06 M⁻¹ s⁻¹
4 | B4 | 1.44 nM | 10 nM | 0.284 nM | 1.27 h | 0.0274 nM | 1.65 h | 208 | 0.000152 s⁻¹ | 535000 M⁻¹ s⁻¹ | 0.000117 s⁻¹ | 4.27e+06 M⁻¹ s⁻¹
5 | B5 | 7.92 nM | 21 nM | 0.185 nM | 2.72 h | 0.0194 nM | ≥ 19.2 h | 401 | 7.08e-05 s⁻¹ | 378000 M⁻¹ s⁻¹ | 1e-05 s⁻¹ | 515000 M⁻¹ s⁻¹
6 | B6 | 5.76 nM | 30 nM | 0.0783 nM | 6.5 h | 0.0217 nM | ≥ 19.2 h | 305 | 2.96e-05 s⁻¹ | 381000 M⁻¹ s⁻¹ | 1e-05 s⁻¹ | 460000 M⁻¹ s⁻¹
7 | B7 | 1.18 nM | 10 nM | 0.266 nM | 1.25 h | 0.0295 nM | 1.91 h | 197 | 0.000154 s⁻¹ | 578000 M⁻¹ s⁻¹ | 0.000101 s⁻¹ | 3.42e+06 M⁻¹ s⁻¹
